The values that follow come from PMC5807053, “Saposin Lipid Nanoparticles: A Highly Versatile and Modular Tool for Membrane Protein Research” (Structure(London, England:1993), 2018).

Where two headings read alike, the source gives them in different places. Residues, ends and D or L forms follow the SMILES beside them.

Data set [1] addresses peptide transporter PepTSt from Streptococcus thermophilus (Streptococcus thermophilus) (UniProt Q5M4H8). Briefly: MST; label-free, transporter reconstituted in SapA/POPS nanoparticles at ~125 nM, 16 peptide concentrations, 1x PBS, 20 °C.
For data set [2] the target is unchanged. Kind of data set: MST; label-free (intrinsic tryptophan fluorescence), DDM-solubilised transporter at ~125 nM, 16 peptide concentrations, 20 mM Tris pH 7.5, 150 mM NaCl, 5 % glycerol, 0.03 % DDM, 20 °C.
Data set [3] has the same target. Kind of data set: MST; label-free, transporter reconstituted in SapA/BL (brain total lipid extract) nanoparticles at ~125 nM, 16 peptide concentrations, 1x PBS, 20 °C.
The target in data set [4] is small-conductance mechanosensitive channel T2 from Thermoplasma volcanium (Thermoplasma volcanium). Briefly: SEC-MALS; triple-detection SEC conjugate analysis (UV, refractive index, multi-angle light scattering); 60 uL T2 at 5 mg/mL on SD200 10/300 in 20 mM Tris pH 7.5, 150 mM NaCl, 5 % glycerol, 0.03 % DDM.
Data set [5] has as its target PepTSt. The settings on record: MST, 20 °C.
Experimental: PepTSt and PepTSo2 di and tripeptide binding in solution was measured by MST with the Monolith NT.LabelFree (NanoTemper technologies). The proteins were kept at a constant concentration of ∼125 nM and were combined with a series of 16 different peptide concentrations. For DDM- and SapNP-solubilized proteins, the ligands were diluted in DDM buffer (20 mM Tris pH 7.5, 150 mM NaCl, 5 % glycerol, and 0.03 % DDM) and in 1 × PBS, respectively. The thermophoretic movement of the proteins, alone and in complex with different peptides, was monitored and quantified using time-dependent intrinsic tryptophan fluorescence. The samples were loaded in standard glass capillaries. Data were acquired at 20 °C, the LED power was set to 20 %, and the MST power to 20 % and 40 %. The dissociation constant (KD) values were derived from the nonlinear fitting of the normalized fluorescence signal at different ligand concentrations using the NT analysis software. Empty SapNPs were used as control measurements.
Data set [6] addresses T1, SapA/POPS empty nanoparticles (Homo sapiens, UniProt P07602).
T1 construct: saposin A (residues 60 to 140); made in house; host or cells: E. coli Rosetta gami-2 (DE3)
T1 sequence (P07602 60-140): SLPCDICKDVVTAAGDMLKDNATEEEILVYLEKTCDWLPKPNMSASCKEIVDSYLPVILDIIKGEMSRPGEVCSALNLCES
Briefly: MST control for unspecific peptide binding to empty SapA/POPS nanoparticles. An excerpt:
(§1) The samples were loaded in standard glass capillaries. […] Empty SapNPs were used as control measurements.

The target of data set [7] is T2, PepTSo2 (Shewanella oneidensis, UniProt Q8EHE6).
T2 sequence (Q8EHE6 1-516): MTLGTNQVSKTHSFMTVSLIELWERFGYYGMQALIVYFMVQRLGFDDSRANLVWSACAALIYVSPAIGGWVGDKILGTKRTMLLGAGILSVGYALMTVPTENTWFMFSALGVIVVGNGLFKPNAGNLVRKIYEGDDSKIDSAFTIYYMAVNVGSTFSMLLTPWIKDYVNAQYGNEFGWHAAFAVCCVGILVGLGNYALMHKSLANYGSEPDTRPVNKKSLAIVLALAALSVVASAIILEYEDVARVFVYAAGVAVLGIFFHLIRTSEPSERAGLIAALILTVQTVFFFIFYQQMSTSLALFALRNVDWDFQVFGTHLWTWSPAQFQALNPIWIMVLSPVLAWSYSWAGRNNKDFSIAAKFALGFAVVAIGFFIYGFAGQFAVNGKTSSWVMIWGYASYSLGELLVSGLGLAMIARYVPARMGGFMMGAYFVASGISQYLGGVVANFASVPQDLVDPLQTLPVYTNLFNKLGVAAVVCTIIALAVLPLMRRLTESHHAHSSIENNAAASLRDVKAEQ
Briefly: MST di-/tripeptide binding in solution to PepTSo2. The settings on record: 20 °C.
Source text: as §1

Details of data set [8]: method as in Frauenfeld et al., 2016. As to conditions: ref Frauenfeld et al., 2016, cited from earlier work.
The nature of data set [9]: Protein thermal unfolding by dye-free nanoDSF. The class given is physicochemical. As to conditions: purified protein alone, 20 to 95 °C. As for the experimental part: The stability of the different DDM-solubilized or SapNP-reconstituted proteins was followed using a nanoDSF (Prometheus NT.48 form NanoTemper Technologies, GmbH). The dye-free proteins were excited at 280 nm and their intrinsic fluorescence at 350 and 330 nm were measured as a function of temperature to monitor the fluorescence changes upon heat unfolding. 10 μL of protein solution at a concentration of 0.5 mg/mL were loaded in a glass capillary, and the unfolding was measured in duplicates at a heating rate of 1 °C/min between 20 and 95 °C. The first derivative of the unfolding curves (350/330 nm ratio) was used to determine the transition midpoint (Tm).

With dipeptide Leu-Ala, the Kd came out at 5.49 mM in data set [1], 16.6 mM in [2] and 16.4 mM in [3].
As to “small-conductance mechanosensitive channel T2 from Thermoplasma volcanium (natural protein)”, the stoichiometry N in [4] amounted to 7.
In the case of `CC(C)C[C@H](N)C(=O)N[C@@H](C)C(=O)O` [Leu-Ala] (H-Leu-Ala-OH; N-terminus and C-terminus assumed), the Kd was found to be 16.6 ± 3.6 mM in data set [5] (PepTSt in DDM), 16.4 ± 3.6 mM in data set [5] (PepTSt in SapA/BL) and 5.49 ± 1 mM in [5] (PepTSt in SapA/POPS). Moreover, in [6], the unspecific peptide binding entry is on record as “no unspecific peptide binding”.
Take `C[C@H](N)C(=O)N[C@@H](Cc1ccccc1)C(=O)N[C@@H](C)C(=O)O` [Ala-Phe-Ala] (H-Ala-Phe-Ala-OH; N-terminus and C-terminus assumed): the Kd was 3.4 ± 1.3 mM in data set [7] (PepTSo2 in DDM) and 5 ± 3 mM in data set [7] (PepTSo2 reconstituted in SapA/BL).

B1: PepTSo2: peptide transporter from Shewanella oneidensis (protein)
chain: T2 sequence (Q8EHE6 1-516)
As to B1, the Tm in data set [8] (encapsulated in SapA/BL nanoparticles) is 72 °C; in data set [8] (in the detergent nonyl-β-D-maltopyranoside), 43 °C.

B2: saposin A: human saposin A, Prosaposin residues 60 to 140, recombinant (protein)
chain: T1 sequence (P07602 60-140)
modifications: left off: His6, N-terminal, cleaved
notes: human saposin A, Prosaposin residues 60 to 140, recombinant
With B2, the unfolding transition entry in data set [9] is on record as “does not show an unfolding transition”.
